The text below walks through data of the supplement of paper PMC7877785.

A short description of this series: self-splicing fitness, log relative to wild type (ln ratio); higher = more splicing; Tetrahymena group I intron in knt gene, E. coli kanamycin selection, DiMSum; sequences stand for … in CUCUCU…GGAGGGAAAAGUUAUCAGGCAUGCACCUGGUAGCUAGUCUUUAAACCAAUAGAUUGCAUCGGUUUAAAAGGCAAGACCGUCAAAUUGCGGGAAAGGGGUCAACAGCCGUUCAGUACCAAGUCUCAGGGGAAACUUUGAGAUGGCCUUGCAAAGGGUAUGGUAAUAAGCUGACGGACAUGGUCCUAACCACGCAGCCAAGUCCUAAGUCAACAGAUCUUCUGUUGAUAUGGAUGCAGUUCACAGACUAAAUGUCGGUCGGGGAAGAUGUAUUCUUCUCAUAAGAUAUAGUCGGACCUCUCCUUAAUGGGAGCUAGCGGAUGAAGUGAUGCAACACUGGAGCCGCUGGGAACUAAUUUGUAUGCGAAAGUAUAUUGAUUAGUUUUGGAGUACUCGUGGUCG
In a few lines:
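Pooled colonies went to amplicon sequencing on an Illumina HiSeq 2500 after six replicate transformations. The plates were LB agar with 100 μg/mL carbenicillin, 50 μM IPTG and 0.2% rhamnose, with or without 25 μg/mL kanamycin, incubated overnight at 37°C or 30°C. The E. coli BL21(DE3) library had all eight P1ex-region intron nucleotides randomised, the intron placed in the knt kanamycin-resistance gene on pET-22b(+). DiMSum fitness is the error-weighted combination of replicate fold changes, kanamycin against none, normalised to wild type.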

± gives the uncertainty stated by the source.

On to CGGGAGCAAUAUUACGCGAU, for which, where the note is “37 °C”, the “self-splicing fitness (ln)” value was -1.6 ± 0.41. Consider CGGGAGCAAUAUUACGCGUG, for which the “self-splicing fitness (ln)” value was -3.47 ± 0.18 (30 °C) and -1.65 ± 0.13 (37 °C).

As to CGGGAGCAAUAUUACGGCGG, the “self-splicing fitness (ln)” value is, setting by setting: (30 °C) -1.17 ± 0.11; (37 °C) -1.09 ± 0.19.

Consider CGGGAGCAAUAUUACGGGAA, for which the “self-splicing fitness (ln)” value (37 °C) was -1.85 ± 0.41. Regarding CGGGAGCAAUAUUACGGGGC, the “self-splicing fitness (ln)” value (37 °C) is -2.14 ± 0.43. On the same count and under the same terms, for CGGGAGCAAUAUUACGGGUC the value was -2.97 ± 0.48.

As to CGGGAGCAAUAUUACGGGUU, the “self-splicing fitness (ln)” value (30 °C) was -2.34 ± 0.32 and the “self-splicing fitness (ln)” value (37 °C) is -2.53 ± 0.26.

CGGGAGCAAUAUUACGGUAA: the “self-splicing fitness (ln)” value was -3.01 ± 0.34 (30 °C) and -1.13 ± 0.21 (37 °C). As for CGGGAGCAAUAUUACGGUGA, the “self-splicing fitness (ln)” value (30 °C) is -2.3 ± 0.33. The same measure, in the same setting: for CGGGAGCAAUAUUACGGUGC the value was -3.21 ± 0.49.

In the case of CGGGAGCAAUAUUACGUGAA, under “37 °C”, the “self-splicing fitness (ln)” value is -2.15 ± 0.3.

For the sequence CGGGAGCAAUAUUACGUGAC, the “self-splicing fitness (ln)” value was -2.16 ± 0.32 (30 °C) and -2.9 ± 0.44 (37 °C). As for CGGGAGCAAUAUUACGUGCG, the “self-splicing fitness (ln)” value (30 °C) is -2.41 ± 0.46 and the “self-splicing fitness (ln)” value (37 °C) is -1.33 ± 0.43. The corresponding values for CGGGAGCAAUAUUACGUUAU are -2.65 ± 0.26 and -3.21 ± 0.47.

As for CGGUAGCAAUAUUACGACGA, the “self-splicing fitness (ln)” value is -1.46 ± 0.19 (30 °C) and 0.22 ± 0.17 (37 °C). Take CGGUAGCAAUAUUACGAGUC: the “self-splicing fitness (ln)” value (30 °C) is -2.07 ± 0.43. On to CGGUAGCAAUAUUACGCAAA, for which the “self-splicing fitness (ln)” value (37 °C) is -1.6 ± 0.42. For the sequence CGGUAGCAAUAUUACGCAGA, the “self-splicing fitness (ln)” value (30 °C) was -1.8 ± 0.29 and the “self-splicing fitness (ln)” value (37 °C) was -1.91 ± 0.2. CGGUAGCAAUAUUACGCAUC: the “self-splicing fitness (ln)” value (37 °C) was -2.58 ± 0.21. As to CGGUAGCAAUAUUACGCUAG, the “self-splicing fitness (ln)” value runs as follows: (30 °C) -2.28 ± 0.34; (37 °C) -0.219 ± 0.24. Consider CGGUAGCAAUAUUACGCUGC, for which the “self-splicing fitness (ln)” value (37 °C) was -2.17 ± 0.49.

Take CGGUAGCAAUAUUACGCUGU: the “self-splicing fitness (ln)” value is -3.2 ± 0.23 (30 °C) and -3.02 ± 0.37 (37 °C). Consider CGGUAGCAAUAUUACGGAAU, for which, under “37 °C”, the “self-splicing fitness (ln)” value was -1.93 ± 0.47.

As to CGGUAGCAAUAUUACGGAUA, the “self-splicing fitness (ln)” value (37 °C) was -1.54 ± 0.3. On to CGGUAGCAAUAUUACGGCCA, for which the “self-splicing fitness (ln)” value (30 °C) is 0.0804 ± 0.18 and the “self-splicing fitness (ln)” value (37 °C) is -0.151 ± 0.24. The corresponding values for CGGUAGCAAUAUUACGGCGA are -2.69 ± 0.27 and -2.13 ± 0.26.

As for CGGUAGCAAUAUUACGGGCC, the “self-splicing fitness (ln)” value (30 °C) is -3.47 ± 0.36. For the sequence CGGUAGCAAUAUUACGGUAC, for the setting “37 °C”, the “self-splicing fitness (ln)” value was -1.22 ± 0.42. Regarding CGGUAGCAAUAUUACGGUCG, the “self-splicing fitness (ln)” value by setting is: (30 °C) -2.62 ± 0.21; (37 °C) -1.65 ± 0.25.

For the sequence CGGUAGCAAUAUUACGUAUA, the “self-splicing fitness (ln)” value is -3.71 ± 0.24 (30 °C) and -2.53 ± 0.18 (37 °C). The corresponding values for CGGUAGCAAUAUUACGUAUC are -2.67 ± 0.15 and -2.83 ± 0.29. The corresponding values for CGGUAGCAAUAUUACGUCAC are -2.59 ± 0.34 and -1.82 ± 0.48.

Take CGGUAGCAAUAUUACGUCUU: the “self-splicing fitness (ln)” value was -0.667 ± 0.1 (30 °C) and 0.17 ± 0.12 (37 °C). Regarding CGGUAGCAAUAUUACGUGAC, the “self-splicing fitness (ln)” value (37 °C) is -2.73 ± 0.41. On to CGGUAGCAAUAUUACGUGGA, for which the “self-splicing fitness (ln)” value is, setting by setting: (30 °C) -4.03 ± 0.27; (37 °C) -2.26 ± 0.17. The corresponding values for CGGUAGCAAUAUUACGUUCC are -4.16 ± 0.33 and -1.9 ± 0.26. The corresponding values for CGGUAGCAAUAUUACGUUGC are -2.1 ± 0.14 and -2.85 ± 0.33.

As for CGGUAGCAAUAUUACGUUUG, the “self-splicing fitness (ln)” value reads like this: (30 °C) -0.275 ± 0.082; (37 °C) -0.027 ± 0.098. The corresponding values for CGUAAGCAAUAUUACGAAAU are -3.16 ± 0.27 and -1.86 ± 0.25. The corresponding values for CGUAAGCAAUAUUACGAGCU are -3.7 ± 0.37 and -2.53 ± 0.41. The corresponding values for CGUAAGCAAUAUUACGAGUC are -2.82 ± 0.4 and -1.92 ± 0.34.

For CGUAAGCAAUAUUACGCGAG, the “self-splicing fitness (ln)” value is -1.63 ± 0.2 (30 °C) and -2.56 ± 0.44 (37 °C). For CGUAAGCAAUAUUACGCUGG, the “self-splicing fitness (ln)” value was -1.56 ± 0.12 (30 °C) and -0.793 ± 0.11 (37 °C). The corresponding values for CGUAAGCAAUAUUACGCUUU are -3.21 ± 0.23 and -2.31 ± 0.2. CGUAAGCAAUAUUACGGCCC: the “self-splicing fitness (ln)” value (37 °C) was -1.43 ± 0.3. With CGUAAGCAAUAUUACGUAGU, the “self-splicing fitness (ln)” value by setting is: (30 °C) -3.74 ± 0.27; (37 °C) -1.48 ± 0.18. Consider CGUAAGCAAUAUUACGUGAU, for which the “self-splicing fitness (ln)” value is -3.93 ± 0.31 (30 °C) and -2.57 ± 0.24 (37 °C). The corresponding values for CGUAAGCAAUAUUACGUGCU are -3.24 ± 0.21 and -1.94 ± 0.21.

As to CGUCAGCAAUAUUACGAAGA, the “self-splicing fitness (ln)” value by setting is: (30 °C) -2.26 ± 0.19; (37 °C) -2.09 ± 0.23.

As to CGUCAGCAAUAUUACGACAC, the “self-splicing fitness (ln)” value is -1 ± 0.14 (30 °C) and 0.484 ± 0.13 (37 °C). Consider CGUCAGCAAUAUUACGACUU, for which the “self-splicing fitness (ln)” value runs as follows: (30 °C) -0.191 ± 0.069; (37 °C) 0.132 ± 0.08. As for CGUCAGCAAUAUUACGAGUG, the “self-splicing fitness (ln)” value is, setting by setting: (30 °C) -0.944 ± 0.056; (37 °C) -0.00372 ± 0.077. Turning to CGUCAGCAAUAUUACGAUCU, the “self-splicing fitness (ln)” value is -1.09 ± 0.086 (30 °C) and -0.0587 ± 0.11 (37 °C). Take CGUCAGCAAUAUUACGAUUC: the “self-splicing fitness (ln)” value (30 °C) was -0.695 ± 0.096 and the “self-splicing fitness (ln)” value (37 °C) was 0.147 ± 0.087.

Turning to CGUCAGCAAUAUUACGAUUG, the “self-splicing fitness (ln)” value (30 °C) is -0.506 ± 0.076 and the “self-splicing fitness (ln)” value (37 °C) was -0.162 ± 0.084. The corresponding values for CGUCAGCAAUAUUACGCAGC are -3.34 ± 0.2 and -2.26 ± 0.19. The corresponding values for CGUCAGCAAUAUUACGCCCA are -0.52 ± 0.12 and -0.0594 ± 0.14. The corresponding values for CGUCAGCAAUAUUACGCGGU are -2.93 ± 0.16 and -2.27 ± 0.19. With CGUCAGCAAUAUUACGGAAC, the “self-splicing fitness (ln)” value (30 °C) is -2.22 ± 0.27 and the “self-splicing fitness (ln)” value (37 °C) was -2.61 ± 0.25. Consider CGUCAGCAAUAUUACGGGGG, for which the “self-splicing fitness (ln)” value is, setting by setting: (30 °C) -3.62 ± 0.2; (37 °C) -2.05 ± 0.14. The corresponding values for CGUCAGCAAUAUUACGGUAA are -1.1 ± 0.26 and -1.3 ± 0.23. The corresponding values for CGUCAGCAAUAUUACGGUGU are -2.66 ± 0.12 and -0.454 ± 0.1. Consider CGUCAGCAAUAUUACGUAAA, for which the “self-splicing fitness (ln)” value is, setting by setting: (30 °C) -1.97 ± 0.06; (37 °C) -1.21 ± 0.097. For CGUCAGCAAUAUUACGUAUA, where the note is “37 °C”, the “self-splicing fitness (ln)” value is -0.724 ± 0.16. Regarding CGUCAGCAAUAUUACGUGAG, the “self-splicing fitness (ln)” value is -0.162 ± 0.04 (30 °C) and -0.124 ± 0.061 (37 °C). On to CGUCAGCAAUAUUACGUUAA, for which the “self-splicing fitness (ln)” value reads like this: (30 °C) -3.28 ± 0.17; (37 °C) -2.38 ± 0.14.
